For 132 substances, amyloid nucleation score results are on record in the supplement of paper PMC12042874.

± gives the uncertainty stated by the source.

The series in a line: amyloid nucleation score (Sup35N fusion, yeast selection) (log enrichment); library NNK3; higher = more nucleation; inactive = no reads after selection. The essentials: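 The nucleation score is the log enrichment of output over input reads, calculated with DiMSum and centred on the mode score of non-aggregating sequences. Sequences with under 100 input reads were excluded. Reads came from Illumina sequencing of plasmid inserts from psi-negative yeast expressing Sup35N fused to peptides of 20 random codons, induced 24 hours with 100 μM copper sulfate and grown 7 days at 30°C without adenine and uracil.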
Consider FCRMVPLIEWSVTRFRDCVG, for which the amyloid nucleation score result was “inactive”.

As for FCTPI, the amyloid nucleation score entry was “inactive”.

For the substance FDACLTERVVGISKDTDTSG, the amyloid nucleation score entry was “inactive”.

As to FDFWEDRVCPIYNCLGCGKL, the amyloid nucleation score result is “inactive”.

Take FDGFLNFVITSRSNVF: the amyloid nucleation score entry is “inactive”.

Turning to FDRNSPTVLFRLRWEYF, the amyloid nucleation score result is “inactive”.

In the case of FDRSSGKRMVL, the amyloid nucleation score stood at 0.466 ± 0.21.

FDVVVIYATGVCFLATYYQG: the amyloid nucleation score result is “inactive”.

As to FECRQ, the amyloid nucleation score entry was “inactive”.

Regarding FEECGVGPYVTKREATWFNG, the amyloid nucleation score result was “inactive”.

Substance FELFKKGRSI registered an amyloid nucleation score of 0.898 ± 0.23.

For FESMGFHPRSVIYEYVCELN, the amyloid nucleation score result was “inactive”.

Turning to FEWLMGRHLYISLRLHMRRS, the amyloid nucleation score entry was “inactive”.

Regarding FFANKYSLFAVVTMLANFLY, the amyloid nucleation score entry is “inactive”.

Consider FFEFRSASYWGPSQYRNMCT, for which the amyloid nucleation score entry is “inactive”.

The substance FFENWKLGDFAYRRIGTLLK showed an amyloid nucleation score of -0.515 ± 0.66.

FFFVMSRRANVIGSLEDRSD displayed an amyloid nucleation score of 0.936 ± 0.11.

On to FFKFFWFSRRPISSFLGLCV, for which the amyloid nucleation score came out at 0.708 ± 0.15.

Regarding FFLPSG, the amyloid nucleation score entry was “inactive”.

Substance FFLYSNIFQLS came in with an amyloid nucleation score of 2.32 ± 0.092.

Take FFNRGKVAETGFIWSMVVV: the amyloid nucleation score entry was “inactive”.

In the case of FFNVELLMIDCGFYEFHTDD, the amyloid nucleation score is 2.1 ± 0.056.

Turning to FFPAMRTCWGKSGCARPYA, the amyloid nucleation score result is “inactive”.

With FFRSCWCFVLLLNDCMITSL, the amyloid nucleation score result was “inactive”.

In the case of FFRVYYRSTGGVNM, the amyloid nucleation score entry is “inactive”.

As for FFTRSNVLRSVCFSSPITLW, the amyloid nucleation score result was “inactive”.

FFVFVR: the amyloid nucleation score came to 1.3 ± 0.15.

With FFVLGRSTMSWLR, the amyloid nucleation score entry was “inactive”.

On to FFVLYRLRELPPAQLMMKAA, for which the amyloid nucleation score result was “inactive”.

Consider FFVQSGIIEELYTW, for which the amyloid nucleation score was 0.173 ± 0.31.

FFVYVEHRCSYNGRTSDIFY had an amyloid nucleation score of -0.185 ± 0.51.

Turning to FFYDLMYLIMV, the amyloid nucleation score entry is “inactive”.

Regarding FFYSVLCLLRAVLVDSNLGW, the amyloid nucleation score result is “inactive”.

For the substance FFYSYGRLNPKYDRVYISFG, the amyloid nucleation score is -0.661 ± 0.98.

Regarding FFYWSWVQPEPY, the amyloid nucleation score entry is “inactive”.

Take FFYYLRSVLHSSYLFRRDVI: the amyloid nucleation score result is “inactive”.

FGCQTGWRFRFINSNNR yielded an amyloid nucleation score of 1.25 ± 0.14.

Regarding FGFPTFFSMTV, the amyloid nucleation score entry was “inactive”.

Take FGGVGAW: the amyloid nucleation score result is “inactive”.

Take FGIKFVIQVDCRHIMHNCVN: the amyloid nucleation score came to 0.077 ± 0.87.

In the case of FGIWFGRNLGVGMDTKMSRF, the amyloid nucleation score entry is “inactive”.

Take FGKGVCRLD: the amyloid nucleation score entry is “inactive”.

Consider FGNLLVLSYDEDCNAATWVR, for which the amyloid nucleation score entry is “inactive”.

In the case of FGQCNQVCCSEWDKD, the amyloid nucleation score entry is “inactive”.

Turning to FGQVKSCLAPCKSAAKH, the amyloid nucleation score entry is “inactive”.

For FGRSVDFMVIHFCTTY, the amyloid nucleation score result is “inactive”.

Take FGSHYSFRIQKVFFAVQRSP: the amyloid nucleation score was 2.41 ± 0.082.

Take FGSNTGYVIEGRLAVGFEKL: the amyloid nucleation score entry was “inactive”.

Take FGSSMYRMKPVDC: the amyloid nucleation score entry is “inactive”.

For FGVSNRMWRKSRNLSGSPRA, the amyloid nucleation score entry was “inactive”.

FGVYKLSWNP: the amyloid nucleation score was 0.044 ± 0.41.

As to FGYSLMLVTACVLRCQSLWS, the amyloid nucleation score result was “inactive”.

As to FHGFLYSAFSSDG, the amyloid nucleation score entry was “inactive”.

In the case of FHIPLSQRCLAPFCNAHL, the amyloid nucleation score entry is “inactive”.

In the case of FHKKMCTWIDELVIAVQFRD, the amyloid nucleation score result was “inactive”.

The substance FHLYCTIITLACCIMVWNCQ yielded an amyloid nucleation score of 1.33 ± 0.14.

FHNFVRHIYAGGNRP: the amyloid nucleation score entry is “inactive”.

Take FHSAL: the amyloid nucleation score result is “inactive”.

In the case of FHSQYEGAEERSPRNVLMAR, the amyloid nucleation score entry is “inactive”.

Take FHVSCSSFSKWNHENWHNLK: the amyloid nucleation score was 0.006 ± 0.56.

As for FIAFWCVNLRTL, the amyloid nucleation score result was “inactive”.

On to FICFNFHRKECVEKASSSCK, for which the amyloid nucleation score turned out to be 1.39 ± 0.064.

In turn, FIDNRGSDSSTICCYNYAAQ gave an amyloid nucleation score of 0.407 ± 0.61.

Take FIEKAC: the amyloid nucleation score entry is “inactive”.

Substance FIILQFVGFLHNTGFWYQLG displayed an amyloid nucleation score of 0.217 ± 0.25.

For FIIVPKWSCFLVSSMKFRVV, the amyloid nucleation score entry is “inactive”.

Substance FILIYDRYRGF had an amyloid nucleation score of 1.26 ± 0.095.

Turning to FIVDVYICAVSLLVGFLDAE, the amyloid nucleation score entry was “inactive”.

As for FIVFTDF, the amyloid nucleation score result is “inactive”.

In the case of FIVLCALLWFCLNWSDLLKF, the amyloid nucleation score entry was “inactive”.

FIWSAGGIITSHNCLYWQAS: the amyloid nucleation score entry is “inactive”.

As to FKLHCSDRYECTKDLSHLWC, the amyloid nucleation score result was “inactive”.

In the case of FKLHIWSS, the amyloid nucleation score entry is “inactive”.

FKNCHGVVTRCQW: the amyloid nucleation score result is “inactive”.

Regarding FKPWLYFGRPMAQLRDDCQV, the amyloid nucleation score entry is “inactive”.

As to FKQIVKTSFNLCFFIRCKRT, the amyloid nucleation score entry is “inactive”.

For FKRCSSIVRGWSS, the amyloid nucleation score result is “inactive”.

In turn, FKTCPKCSSSCCIFICPCSV returned an amyloid nucleation score of 0.753 ± 0.25.

Take FKVWCVLSADIQF: the amyloid nucleation score entry is “inactive”.

Regarding FLCSTSLFVLVLMLTLTNTP, the amyloid nucleation score result is “inactive”.

For FLFIHKLTCLSLVKWTGFLV, the amyloid nucleation score result was “inactive”.

For FLFRNLVAWFMHSDLFFYGV, the amyloid nucleation score entry is “inactive”.

In the case of FLGDSTNGRRFFSEFRSEWG, the amyloid nucleation score was 0.964 ± 0.17.

For FLGFEYILIAFRVGQYYLTG, the amyloid nucleation score result is “inactive”.

FLGTHEGTDRLLWCVIEEKG: the amyloid nucleation score result is “inactive”.

For the substance FLIDDMYWSVMDTWI, the amyloid nucleation score result is “inactive”.

Consider FLILVGLGRIDLMGTIIKKR, for which the amyloid nucleation score entry is “inactive”.

With FLINPFVWFNNYSFTAF, the amyloid nucleation score was 0.929 ± 0.14.

Take FLIPYKRQIAQRRYVSLE: the amyloid nucleation score result was “inactive”.

Turning to FLLRYWYKAVDSRHRYSQLI, the amyloid nucleation score entry was “inactive”.

Turning to FLLSVNQASNYGTWILWFYR, the amyloid nucleation score entry is “inactive”.

With FLLVLWSVFLTGT, the amyloid nucleation score result is “inactive”.

For the substance FLLVSLAA, the amyloid nucleation score entry is “inactive”.

For FLLVTSRSEEAPLATETYRL, the amyloid nucleation score result is “inactive”.

The substance FLNVKIQNHWRPYPFSPEYA had an amyloid nucleation score of 1.16 ± 0.092.

Take FLQAAYSGSRVAKCVSESSK: the amyloid nucleation score entry is “inactive”.

In the case of FLRLHLFHSWTISLSSYRSV, the amyloid nucleation score result is “inactive”.

In the case of FLSCCKGCLCCCQRPLSIYY, the amyloid nucleation score result is “inactive”.

Consider FLSDSNT, for which the amyloid nucleation score result was “inactive”.

For FLSSCKLMGFMS, the amyloid nucleation score entry is “inactive”.

On to FLTDRPYRGCG, for which the amyloid nucleation score entry is “inactive”.

FLTRFRDPT displayed an amyloid nucleation score of -0.589 ± 0.9.

For FLVNDYFV, the amyloid nucleation score result is “inactive”.

On to FLVPTLHYYLGRWQKKPMLY, for which the amyloid nucleation score entry was “inactive”.

Turning to FLVRRGCP, the amyloid nucleation score entry is “inactive”.

FLVTYKISWRYKSQQLCSYY: the amyloid nucleation score entry was “inactive”.

As for FLWLYQDCVV, the amyloid nucleation score result is “inactive”.

With FLWSLLYIFIVCGFCNPSRR, the amyloid nucleation score result is “inactive”.

For the substance FLYWVGSFEAEPV, the amyloid nucleation score entry was “inactive”.

As to FMKSRINIRIALWCF, the amyloid nucleation score entry was “inactive”.

Regarding FMLNVVDY, the amyloid nucleation score result was “inactive”.

With FMMMYDCNLDCFRHSIEI, the amyloid nucleation score result is “inactive”.

Consider FMPPFASN, for which the amyloid nucleation score result was “inactive”.

With FMTLMVTLYLRLYSRSYGPQ, the amyloid nucleation score entry was “inactive”.

As to FMVSRMYEWCVCSVQCLMLF, the amyloid nucleation score result was “inactive”.

As for FMWCYMKYCAVHAFDLSWKV, the amyloid nucleation score result is “inactive”.

As to FNANINNNGIRFRREVNLCW, the amyloid nucleation score result is “inactive”.

On to FNDYCSIKKSLTKSMYDLNG, for which the amyloid nucleation score result was “inactive”.

As for FNERIRTNLFDSWTMWGMCF, the amyloid nucleation score result was “inactive”.

In the case of FNETFYGKVGDILISLCRVL, the amyloid nucleation score entry is “inactive”.

In the case of FNKNTDRGI, the amyloid nucleation score result was “inactive”.

In the case of FNLQL, the amyloid nucleation score turned out to be 0.325 ± 0.57.

As for FNSAHDQAAQVRHLHVNVFL, the amyloid nucleation score was 3 ± 0.064.

FNSKTLKLTFFMVVPEYCWW: the amyloid nucleation score entry is “inactive”.

FNSMYRVELVHCCSHNKICD returned an amyloid nucleation score of 1.41 ± 0.1.

As for FNTPDRAPLLATCAVHANLH, the amyloid nucleation score result is “inactive”.

FPDTALLGCNCLFCLEGDGL: the amyloid nucleation score entry was “inactive”.

For FPELSGDYLVIRMTVQFWSV, the amyloid nucleation score result was “inactive”.

As to FPGCSRENLTVGLSVTRTEG, the amyloid nucleation score entry was “inactive”.

On to FPGVLSLRYYLLRMRTQ, for which the amyloid nucleation score result is “inactive”.

Take FPYVLVSTPVSPPICW: the amyloid nucleation score entry was “inactive”.

Turning to FQFNILNSVSGLCICYDSGH, the amyloid nucleation score worked out at 3.41 ± 0.081.
